Data published in patent US20130064826A1 (KALOBIOS PHARMACEUTICALS, published 2013).

T1: CD97 (UniProt P48960 21-552, limits assumed)
T1 sequence (looked up): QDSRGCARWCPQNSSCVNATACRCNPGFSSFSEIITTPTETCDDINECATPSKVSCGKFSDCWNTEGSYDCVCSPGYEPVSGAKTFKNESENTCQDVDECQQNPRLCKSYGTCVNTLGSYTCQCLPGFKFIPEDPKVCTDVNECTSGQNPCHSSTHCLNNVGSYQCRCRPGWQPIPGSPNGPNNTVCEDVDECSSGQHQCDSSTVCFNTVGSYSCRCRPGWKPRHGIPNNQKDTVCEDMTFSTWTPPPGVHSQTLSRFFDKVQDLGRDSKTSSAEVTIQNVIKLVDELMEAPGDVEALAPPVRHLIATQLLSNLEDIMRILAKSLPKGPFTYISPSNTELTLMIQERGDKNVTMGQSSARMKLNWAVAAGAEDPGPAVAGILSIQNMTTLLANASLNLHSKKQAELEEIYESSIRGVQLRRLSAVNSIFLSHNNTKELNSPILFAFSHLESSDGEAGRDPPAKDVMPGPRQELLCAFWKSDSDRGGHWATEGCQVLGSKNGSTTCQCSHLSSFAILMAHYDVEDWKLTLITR

T2: EMR2 (UniProt Q9UHX3 24-540, limits assumed)
T2 sequence (looked up): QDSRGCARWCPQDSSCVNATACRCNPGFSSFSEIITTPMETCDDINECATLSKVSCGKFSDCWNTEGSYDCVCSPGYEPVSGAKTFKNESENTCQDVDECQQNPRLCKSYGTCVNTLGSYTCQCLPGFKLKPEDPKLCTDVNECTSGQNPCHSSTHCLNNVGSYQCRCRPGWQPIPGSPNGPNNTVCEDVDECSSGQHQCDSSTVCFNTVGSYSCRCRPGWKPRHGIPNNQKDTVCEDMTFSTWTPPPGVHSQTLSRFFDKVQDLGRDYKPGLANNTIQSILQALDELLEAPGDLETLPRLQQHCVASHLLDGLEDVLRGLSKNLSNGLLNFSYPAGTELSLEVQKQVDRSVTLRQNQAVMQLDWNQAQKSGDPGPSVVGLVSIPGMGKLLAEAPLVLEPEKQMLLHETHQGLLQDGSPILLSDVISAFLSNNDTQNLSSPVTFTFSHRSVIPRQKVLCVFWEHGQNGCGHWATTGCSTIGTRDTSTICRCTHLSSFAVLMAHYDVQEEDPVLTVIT

T3: EMR1 on human eosinophils (human, UniProt Q14246 21-886)
T3 construct: whole, on cells
T3 sequence (looked up): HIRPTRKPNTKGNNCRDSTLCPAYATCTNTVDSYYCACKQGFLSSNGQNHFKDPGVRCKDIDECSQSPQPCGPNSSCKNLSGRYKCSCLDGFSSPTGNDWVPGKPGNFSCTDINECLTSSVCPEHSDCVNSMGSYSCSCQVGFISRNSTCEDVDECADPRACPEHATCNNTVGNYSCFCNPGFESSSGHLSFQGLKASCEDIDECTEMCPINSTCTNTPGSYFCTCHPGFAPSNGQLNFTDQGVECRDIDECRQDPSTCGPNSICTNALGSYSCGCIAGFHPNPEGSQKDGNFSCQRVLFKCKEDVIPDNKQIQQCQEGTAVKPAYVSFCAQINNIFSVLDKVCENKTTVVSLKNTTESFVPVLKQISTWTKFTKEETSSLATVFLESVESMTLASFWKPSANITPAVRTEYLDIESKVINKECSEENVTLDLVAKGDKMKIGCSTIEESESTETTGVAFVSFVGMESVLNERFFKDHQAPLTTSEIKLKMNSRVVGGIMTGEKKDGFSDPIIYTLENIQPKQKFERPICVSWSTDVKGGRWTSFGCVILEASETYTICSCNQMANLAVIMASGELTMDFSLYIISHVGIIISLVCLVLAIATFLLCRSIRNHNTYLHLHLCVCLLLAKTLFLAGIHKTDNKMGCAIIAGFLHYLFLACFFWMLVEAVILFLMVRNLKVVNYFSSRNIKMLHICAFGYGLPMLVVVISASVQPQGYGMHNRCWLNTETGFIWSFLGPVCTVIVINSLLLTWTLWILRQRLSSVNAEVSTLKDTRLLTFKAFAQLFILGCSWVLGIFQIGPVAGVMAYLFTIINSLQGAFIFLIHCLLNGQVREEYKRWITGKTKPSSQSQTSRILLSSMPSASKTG

T4: Peptide 1
T4 construct: also called 27 mer; EMR1 ELD-6 271-297
T4 peptide: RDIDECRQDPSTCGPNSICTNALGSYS

T5: Peptide 4
T5 construct: also called 20 mer; EMR1 ELD-6 271-290
T5 peptide: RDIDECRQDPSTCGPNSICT

T6: Peptide 7
T6 construct: also called 18 mer; EMR1 ELD-6 271-288
T6 peptide: RDIDECRQDPSTCGPNSI


How the values were obtained:
CD97 = target: T1, CD97; assay: not described
EMR2 = target: T2, EMR2; assay: not described
[1] = target: T3, EMR1 on human eosinophils; assay: flow cytometry on human eosinophils
Method: Splenic B cells from mice immunized with purified human EMR1-Fc fusion protein were fused with SP2/0-Ag14 cells to generate hybridoma cell lines. Supernatants containing antibody from monoclonal lines were tested for binding to recombinant human EMR1 by ELISA. Antibodies that bound EMR1 were tested for binding to human eosinophils by flow cytometry. Polymorphonuclear-cell rich fractions from buffy coat blood were obtained by Ficoll gradient centrifugation and residual red blood cells were lysed with ammonium chloride (ACK lysis buffer). Eosinophils were isolated by negative selection using a MACS eosinophil isolation kit (Miltenyi) and incubated with 10 μg/ml rat IgG and 2% BSA to block nonspecific IgG binding before addition of anti-EMR1 antibody or isotype control antibody. Anti-mouse FITC antibody was used for detection of bound antibodies on a FACSCalibur flow cytometer.

Peptide 1 = target: T4, Peptide 1; assay: biolayer interferometry (ForteBio Octet)
Peptide 4 = target: T5, Peptide 4; assay: biolayer interferometry (ForteBio Octet)
Peptide 7 = target: T6, Peptide 7; assay: biolayer interferometry (ForteBio Octet)

binding result (CD97)	binding result (EMR2)	binding result [1]	binding result (Peptide 1)	binding result (Peptide 4)	binding result (Peptide 7)	Binder
no binding	no binding	binds	–	–	–	monoclonal antibody 19-1E7 (antibody, V domains shown, Murine hybridoma antibody raised against human EMR1-Fc; Hybridoma supernatant was used in the screening) VH: QVQLKESGPGLVAPSQSLSITCTVSGFSLTNFGIHWVRQPPGKGLEWLGVIWSGGGTNYNSALMSRLSISKDNSKSQVFLKMNSLQTDDTAIYYCVSIYYRGFDSWGQGTTLTVSS VL: DVFMTQAPLSLPVSLGDQASISCRSSQSIVHSNGNTYLEWYLQKPGQSPKLLIYRVSNRFSGVPDRFSGSGSGTDFTLKISRVEAEDLGVYYCFQGSHVPLTFGAGTRLELK
–	–	–	binds	binds	binds	chimeric 19-1E7 IgG1k antibody (c1E7) (antibody, V domains shown, 19-1E7 variable regions combined with human gamma-1 Fc and kappa constant regions (IgG1 kappa); Made in fucosylated (CHOK1 SV) and non-fucosylated (MS704-PF) forms; also called chimeric 1E7) VH: QVQLKESGPGLVAPSQSLSITCTVSGFSLTNFGIHWVRQPPGKGLEWLGVIWSGGGTNYNSALMSRLSISKDNSKSQVFLKMNSLQTDDTAIYYCVSIYYRGFDSWGQGTTLTVSS VL: DVFMTQAPLSLPVSLGDQASISCRSSQSIVHSNGNTYLEWYLQKPGQSPKLLIYRVSNRFSGVPDRFSGSGSGTDFTLKISRVEAEDLGVYYCFQGSHVPLTFGAGTRLELK
